Laboratory results: the RNAGym collection of RNA variant scans (doi:10.1073/pnas.2313332121)

B1: TPR t1 (parent)
chain: GACCAAUCUGCCCUCAGAGCUCGAGAACAUCUUCGGAUGCAGAGGAGGCAGGCUUCGGUGGCGCGAUAGCGCCAACGUCCUCAACCUCCAAUGCAUCCCACCACAUGAUGAUGCCUGAAGAGCCUUGGUUUUUUG

Variants of: B1
Assay: polymerase ribozyme fitness, log enrichment relative to wild type (log ratio); higher = more active; in vitro selection for triplet polymerase activity
In short: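 Fitness is a logarithmic measure of how a genotype enriched relative to the wild type, with replicate averages weighted by inverse variance. The logarithm uses base 2, and enrichment came from Illumina sequencing of input and output libraries. Those libraries were PCR-built, transcribed mutants of each subunit of a heterodimeric triplet polymerase ribozyme, passed through one triplicate in vitro selection round that included frozen incubation at −7 °C, gel excision of extended constructs and streptavidin-bead capture. Genotypes were kept only if they had ≥10 input reads and ≥1 read per output.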

Row | Variant | polymerase ribozyme fitness (log ratio)
1 | GACCAAUCCGCCCUCAGAGCUCGAGGACAUCUUCGGAUGCAGAGGAGGCAGGCUUCGGUGGCGCGAUAGCGGCAACGUUCUCAACCUCCAAUGCAUCCCACCACAUGAUGAUGCCUGAAGAGCCUUGGUUUUUUG | -0.65
2 | GACCAAUCUGCCCUCAGAGCUCGAGAACAUCUUCGGAUGCAGAGGUGGCAGGCUUCGGUGGCGCGAUAGUGCCAACGUCCUCAACCUCCAAUGCAUCCCACCACAUGAUGAUGCCUGAAGAGCCUUGGUUUUUUG | -1.31
3 | GACCAAUCUGCCCUCAGAGCUCGAGAACAUCUUCGGAUGCUGAGGAGGCAGGCUUCGGUGGCGCGAUAGCGCCAACGUCCUCAACCUCCAAUGCAUCCCACCACAUGAGGAUGCCUGAAGAGCCUUGGUUUUUUG | -6.03
4 | GACCAAUCUGCCCUCAGAGCUAGAGAACAUCUUCGGAUGCAGAGGAGGCAGGCUUCGGUGGCGCGAUAGCGGCAACGUCCUCAACCUCCAAUGCAUCCCACCACAUGAUGAUGCCUGAAGAGCCUUGGUUUUUUG | -4.59
5 | GACCAAUCUGCCCUCAGAGCUCGAGAACAUCUUCGGAUGCAGAGGAGGCAGGCAUCGGUGGCUCGAUAGCGCCAACGUCCUCAACCUCCAAUGCAUCCUACCACAUGAUGAUGCCUUAAGAGCCUUGGUUUUUUG | -5.72
6 | GACCAAUCUGCCCUCAGAGCUCGAGAACAUCUUCGGAUGCAGAGGAGGCAGGCCUCGGCGGCGCGAUAGCGCCAACGUCCUCAACCUCCAAUGCAUCCCACCACAUGAUGAUGCCUGAGGAGCCUUGGUUUUUUG | 1.11
7 | GACCAAUCUGCCCUCAGAGCUCGAGAACAUCUUCGGAUGCAGAGGAGGCAGGCUUCGGAGGCGCGAUAGCGCCAACGUCCUCAACCUCCAAUGCGUCCCACCACAUGAUGAUGCCUGAAGAGCCGUGGUUUUUUG | -0.633
8 | GACCGUUCUGCCCUCAGAGCUCGAGAACAUCUUCGGAUGCAGAGGAGGCAGGCUUCGGUGCCGCGUUAGCGCCAACGUCCUCAACCUCCAAUGCAUCCCACCACAUGAUGAUGCCUGAAGAGCCUUGGUUUUUUG | -1.7
9 | GACCAAUCUGCCCUCAGAGCUCGAGAACAUCUUCGGAUGCAGAGGAGACAGGCUUCGGUGGCGCGAUAGCGCCAACGUCCUCAACCUCCAAUGCAUCCCAUCACAUGAUGAUGCCUCAAGAGCCUUGGCUUUUUG | -6.15
10 | GACCAAUCUGCCCUCAGAGCUCGAGAACGUCUUCGGAUGCGGAGGAGGCAGGCUUAGGUGACGCGAUAGCGCCAACGUCCUCAACCUCCAAUGCAUCCCACCACAUGAUGAUGCCUGAAGAGCAUUGGUUUUUUG | -1.77
11 | GACCAAUCUGCCCUCAACGCUUGAGAACAUCUUCAGAUGCAGAGGAGGCAGGCUUCGGUGGCGCGAUAGAGCCAACGUGCUCAACCUCCGAUGCAUCCAACCACAUGAUGAUGCCUGAAGAGCGUUGGUUUUUUG | -5.86
12 | GACCAAUCUGCCCUCAGAGCUCGAGAACAUCUUCGGAUGCAGAGGAGGCAGGCUUCGGUGGCGCGAUAGCGCCAACGUCCUCAACCUCAAAUGCCUCCCACCACAUGAUGAUGCCUGAAGAGCCUUGGUUUUUUG | -3.6
13 | GACCAAUCUGCCCUCAGAGCUCGAGAACAUCUUCGGAGGCAGAGGAGGCAGGCUUCGGUGGCGCGAUAGCGCCAACGUCCUCAACCUCCAAUGCCUCCCCCCACAAGAUGAUGCCUGAAGAGCCUUAGUUUUUUG | -3.43
14 | GACCAAUCUGCCCUCAGAGCUCGAGAACAUCUUCGGAUGCAGAGGAGGUAGGCUUCGGUGGCGCGAUAGCGCCAACGUCCUCAACCUCCAAUGCGUCCCACCACAUGAUGAAGCCUGAAGAGCCUUGGUUUUUUG | 0.0263
15 | GACCAAUCUGCCCUCCGAGCUCGAGAACAUCUUCGGAUGCAGAGGAGGCAGGCUUCGGUGCCGCGAUAGCGCCAACGUCCUCAACCUUCAAUGCAUCCCACCACAUGAUGAUGCCUGAAGAGCCUUGGUUUUUUG | -4.85
16 | GACCAAUCUGCCCUCAGAGCUCGAGAACAUCUUCGGAUGCAGAGGAGGAAGGCUUCGGUGGCGCGAUAGCGCCAACGUCCUCAACCUCCAAUGCAUCCCACCACAUGAUGAUGCCUGAAGAGACUUGGUUUUUUG | 0.189
17 | GAUCGAUGUGGCCUCAGAGCUCGAGAACAUCUUCGGAUGCAGAGGAGGCAGGCUUCGGUGGCGCGAUAGCGCUAACGUCCUCAACCUCCAAUGCAUCCAACCACAUGAAGAUGCCUGAAAAGCCUUGGUUUUUUG | -5.15
18 | GACCAAUCUGCACUCAGAGCUCGAGAACAUCUUCGGAUGCAGAGGAGGCAGGCAUCGGUGGCGCGAUAGCGCCAACGUCCUCAACCUCCAAGGCAUCCCACCACAUGAUGAUGCCUGAAGAGCCUUGGUUUCUUG | -3.79
19 | GACCAAUCUGCCCCCAGAGCUCGAGAACAUCUUCGGAUGCAGAGGAGGCAGGCUUCGGUGGCGCGAUAGCGCCAACGUCCUCAACCUCCAAUGCAUCCCACUACAUGAUGAUGCCUGAAGAGCCUUGGUUUUUUG | -3.54
20 | GACCAAUCUGCCCUCAGAGCUCGAGACCAUCUUCGGAUGCAGAGGAGGCAGGCUUCGGUGGCGCGAUAGCGUCAACGUCCUCAACCUCCAAUGCAUCCCACCACAUGAUGAUGCCUGAAGAGCUUUGGUUUUUUG | -0.653
21 | GACAAACCUGCCCUCAGAGCUCGAGAACAUCUUCGGAUGCAGAGGAGGGUGGCUUCGGUGGCGCGAUAGCGCCAACGUCCUCAACCUGCAAUGCAUCCCACCACAUGAUGAUGCCUGAAGAGCCUUGGUUUUUUG | -2.88

Row | Variant | polymerase ribozyme fitness (log ratio)
22 | GCCCAAUCUGCCCUCAGAGCUCGAGAACAUCUUCGGAAGCAGAGGAGGCAGGCUUAGGUGGCGCGAUAGCGCCAACGUCCUCAACCUCCAAUGCAUCCCACCACAUGAUGAUCCCUGAAGAGCCUUGGAUUUUUG | -4.44
23 | GACCAAUCUGCCCUCAGAGCUCGAGAACAUCUUCGGAUGCAGAGGAGGCAGGCUUCGGUGGCGUGAUAGCGCCAACGUCCUCAACCUCCAAUGCAUCCCACCACAUGAUGAUGCCUGAAGAGGCUUGGUUUUUUG | 1.86
24 | GACCAAUCUGCCCUCAGAGCACGAGAACAUCUUCGGAUGCAGAGGAGGCUGGCUUCGGUGUCGCGAUAGCGCCAACGUCCUCAACCUCCAAUGCAUCCCACCACAUGAUGAUGCCUGAAGAGCCUUGGUAUUUUG | -1.97
25 | GACCAAUCUGCCCUCAGAGCUCGAGAACAUCUUCGGAUGCAGAGGAGGCAGGGUUCGGUGGCGCGAUAGGGCCAACGUCCUCAACCUCCAAUGCAUCCCACCACAUGAUGAUGCGUGAAGAGCCUUGGUUUUUUG | -3.49
26 | GACCAAUUUGCCUUCAGAACUCGAGAACAUCUUCGGAUGUAGAGGAGGCAGGUGUCGGUGGCGCGAUAGCGCCGACGUCCUCAACCUCCAAUGCAUCCCACCACAUGAUGAUGCCUGAAGAGCCUUGGUUAUUUG | -5.02
27 | GACCAAUCUGCCCUCAGAGCUCGAGAACAUCUUCGUAUGCAGAGGAGGCAGGCUUCGGUGGCGCGAUAGCGCCAACGUCCUCAACCUCCAAUGCAUCCCAUCACAUGAUGAUGCCCGAAGAGCCUUGGUUUUUUG | -2.19
28 | GACCAAUCUGCCCUCAGAGCUCGAGAACAUCUUCGGAUGCAGAGGAGGCAGGCUUCGGUGGCGCGAUAACGCCAACGUCCUCAACCCCCAAUGCAUCCCACCACAUGAUGAUGCCUGAAGAGCCUUGGUUUUUUG | -2.12
29 | GACCAAUCUGCCUUCAGAGCCCGAGAUCAUCUUCGGUUGCAGAGGAGGCGGGCUUAGGUGGCGCGAUAUCGCCAACGUCCUCAACCUCCAAUGCAUCCCACCACAUGAUGCUGCCUGAAGAGCCUUGGUUUUUUG | -4.81
30 | GACCAAUCUGCCCUCAGAGCUCGAGAACGUCUUCGGAUGCAGAGGAGGCAAGCUUCGGUGGCGCGAUAGCGCCAACGUCCUCAACCUCCAAUGCAUCCCACCACAUGAUGAUGCCUGAAGAGCCUUGGUUUUUUG | -3.06
31 | GACCAAUGUGCCCUCAGAGCUCGAGAACAUCUUCGGAUGCAGAGGAGGCAGGCUUCGGUGGCGCGAUAGCGCCAACGUCCUCAACGUCUAAUACAUCCCACCACAUGAUGAUGCCUGAAGAGCCUUGGUUUUUUG | -0.898
32 | GACCCAUAUGCCCUCAGAGCUCGAGAAUAUCUUCGGAUGCAGAGGAGGCAGGCCUCGGUGGCGCGAUAGCGCCAACGUCCUCAGCCUCCAAUGCAUCCCACCACAUGAUGAUGCCUGAAGAGCCUUGGUUUUUUG | -3.62
33 | GACCAAUCUGCCCUCAGAGCUCGAGAACAUAUUCGGAUGCAGAGGAGGCAGGCCUCGGUUGCGCGAUAGCGCCAACGUCCUCAACCUCCAAUGCAUCCCACCACAUGAUGAUGCCUGAAGCGCCUUGGUUUUUUG | -5.42
34 | GACCAAUCUGCCCUCAGAGCUCGAGAACAUCUUCGGAUGUAGAGGAGGCAGGCUUCGGUGGUGCGAUAGCGCCAACGUCCUCAAGCUCCAAUGCAUCCCACCACAUGAUGAUGCCUGAAGAGCCUUGGUUUUUUG | -2.44
35 | GACCAAUCUGCCUUCAGAGCUCGAGAACAUCUUCGGAUUCGGAGGAGGCAGGCUUCGGUGGCGCGAUAGCGUCAACGUCCUCAACCUCCAAUGCAGCCCACCACAUGAUGAUGCCUAAAGAGCCUUGGUUUUUUG | -3.31
36 | GACCAAUCUGCUCUCAGAGCUCGAGAACUUCUUCGGAUGCAGAGGAGGCAGGCUUCGGUGGCGCGAUAGCGCCAACGUCCUCAACCUCCAAUGCAUCCCACCACAUGAUGAUGCCUGAAGAGCCUUGGUUUUUUG | -2.12
37 | GACCAAUCUGCCCUCAGAGCUCGAGAACAUCUUCAGAUGCAGAGGAGGCAGGCUUCGCUUGCGCGAUAGCGCCAACGUCCUCAACCUCCAAUGCAUCCCACCACAUGAUGAUGCCUGAAGAGCCUUGGUUUUUUG | -5.24
38 | GACCAAUGUGCCCUCAGAGCUCGAGAACAUCUUAGGAUGCAGAGGAGGCAGGCUUCGGUGGCGCGAUAGCGCCAACGCCCUCAACCUCCAAUGCAUACCACCACAUAAUGAUGCCUGAAGAGCCUUGGUUUUUUG | -3.66
39 | GACCAAUCUGCCCUCAGAGCUCGAGAACAUCUUCGGAUGCAGAGGAGGCAGACUUCGGUGGCGCGAUAGCGCAAACGUCCUCAACCUCCAAUGCAUCCCACCACAUGAUGAUGCCUGAAGAGCCUUGGUUUUUUG | -0.179
40 | GACCAAUCUGCCCUCAUAGCUCGAGAACAUCUUCGGAUGCAGAGGAGGCAGGCUUCGGUGGCGCGAUAGGGCCAACGUCCUGAACCUCCAAUGCAUCCCACCACAUGAUGAUGCCUGAAGAGCAUUGGUUGUUUG | -4.66
41 | GACCAAUCUGCCCUCAGAGCUCGAGAACAUCCUCGGAUGCAGAGGAGGCAGGCUUCGGUGGCGCGAUAGCGCCAGCGUCCUCAACCUCCAAUGCAUCCCACCACAUGAUGAUGCCUGAAGAGCAUUGGUUUUUUG | 1.81
42 | GACCAAUCUACCCUCAGAGCUCGAGAACAUCUUCGGAUGCAGAGGAGGCAGGCUUUGGUGGCGCGAUAGCGCCAACGUCCUCAACCUCCAAUGCAUCCCACCACAUGAUGAUGCCUGAAGAGCCUUGGUUUUUUG | 0.385
